# In the DeepSol protein solubility set:
# Experiment: soluble on expression in E. coli; label from the status in PepcDB or PDB records
row,Sequence,soluble on expression in E. coli
1,MTWNTCSLCVTSELMNTLDEAKIPLQKAVNYHEQSQNRQFRITLITKCLENQENPEKSEVSVNFFVDLKELVPSCAYFEKFDGLSYVEFSTNCKSTWISAPESVAAPHEDCSHRFQSPIISRNFHAFLDSVCPSLYGIRPTPLTLSSIVPVLDMLSHFHSEPLLTNCERFLMSTNIGHLDGNHLIRLLDKGLCVSLDHRILGRILCICLMSPQAKMSDSSQELAGTIGSVFAQAFVALVYQKLMVKCEENSNLLIEKSKKSIFDGIFMENLKKKLIFHNFYEYSNISKSFRHIKPLEQESSLWPMAMRNLLIPGALGANSSSSKGSSEEKIGNKKRKRQECDHNEESFECILCFDQRCGKCKGEAAFCYKALDNFLYEIRLQLYPHTYRPHLDRDLLREERLSDYILRNQFQPLPDAN,not soluble
2,MSKKPTSAYVHIPFCTQICYYCDFSKVFIQNQPVDAYLKALIQEFDSYGIRDLKTLYIGGGTPTAITAKQLEYLLNHLERNLNLDDLEEFTIEANPGDLTPEKIAVLQRSAVNRISLGVQTFNNKQLKQIGRSHNEEQIYSTIANLKTAGFHNISIDLIYALPGQTLDQVKENVAKALALDIPHLSLYSLILEHHTVFMNKMRRGKLNLPTEDLEAEMFEYIISEMEANGFEH,not soluble
3,MGSDKIHHHHHHMIMNNHRMLPDQDAWEPWSPAELSRRLSGISRPWCIVGGWALDLWHGSTMREHDDLEFTVLREDLEIFRRELSEMEFYTVNDGVLERLPPDRQPASEIFQIWCFDRTAKCWRVDMMIEPGTDDTWAYKRNPEITRPRTDMVALTADGIPYLNPSAVLLFKAKHRRPKDEQDFVNAHPKLLLSERRWLRNCLELLHPGHEWAQAL,not soluble
4,MGHHHHHHSHMSQPPLLPASAETRKFTRALSKPGTAAELRQSVSEVVRGSVLLAKPKLIEPLDYENVIVQKKTQILNDCLREMLLFPYDDFQTAILRRQGRYICSTVPAKAEEEAQSLFVTECIKTYNSDWHLVNYKYEDYSGEFRQLPNKVVKLDKLP,not soluble
5,FPDILDNRIEKMSSCFKQAAEEYGYKAENFIIYPIKVNQMRPVVEEIISHGKKFNLGLEAGSKPELHAVIAVNTDSDSLIVCNGYKDESYIELALLAQKMGKRIFLVVEKMNELKLIAKMAKQLNVQPNIGIRIKLASSGSGKWEESGGDASKFGLTSSELLEALDFMESKGLKDCLKLIHFHIGSQVTKIRRIKTALREASQFYVQLHSMGFNVEFVDIGGGLGVDYDGTRSSNSEGSVNYSIQEYVNDSISTLVDVSDKNGIPHPNIITESGRALTAH,soluble
6,MAHHHHHHMMRIKQKAFVGKKICIAWEVLHDGKGWKAQGKALQILRFYAFSSEVYLMCRIRDADDKKQICNLVKAVDGIERHRVLFCTTEKGYEAFTRQIDPSLLITNNAAQVAFLKRVIQTLVLVGGDGVVASNVACVPSVEAIAVDLE,not soluble
7,MSEADQALVGPKADEPSPPAEEKDEGGGKEAAADAAPGPSASFRLMVTRREPAVKLQYAVSGLEPLSWSEDHRVSVSTARSVAVLELICDVHNPGQDLVIHRTSVPAPLNSCLLKVGSKTEVAECKEKFASSKDPTISQTFMLDRMFNPEGKALPPMRGFKYTSWSPMGCDANGRCLLAALTMDNRLTVQVNLNRLQWVQLVDLTEIYGDRLYETSYRLSKNEAPEGNLGDFAEFQRRHSMQTPVRMEWSSICTTQQVKHNNECRDVSS,not soluble
8,MVILLQFYKEENFKKTEIGEIPEDWEVRELKDILEVIRNGLTAKQNKDKIGYPITRIETISDSKIDITKLGYVEDIKQEDIAKYRLIIGDILFSHINSEEHIGKVAIYEGKPEFLLHGMNLLLLRPNKNKIEPYYLLYLLRHFKQKNIFKYIAKRAVNQSSINQTQLKHLKIPLPPLEEQKQIAKILSDFDNLIGTINKQIEVLNKAKKGMMKKLFTKGVFEHKSFKKSEIGEIPEDWEVVELGNEKYFKIIMGQSPPSSSYNKEGEGVPFLQGKAEFGNIYPNPVLYTNKPLKVVDDEDILISVRAPVGDVNIAPFKLCIGRGLAGIKSNKEKVDNFFVFYYLSYIKPKIEYLGGGAVFKAITKKDLESIKIPLPPLEEQKAIAKRLKAIDDLIEIKRKEKEQIEKAKKKIMNLLLTGKIRVKT,soluble
9,MSLSDDTSVVQDYIKSRDALVVLEQKMPLRDAFGGRYADIFSRFPGVIGRDGFEYFYRYFKNHVAVDVGTATAVTTLRVQAYTSKDAYLINKYLLEMAEKRVNELNDRSRQDSLRYALAEVAGAEAKVKAASTALSKFRSKASLFDPDRQSNIQLELVAKLRGELIAKQAQLSQLRMLSPQNPQIPSLAASIGALEASIASEKGGVAGEKNSLSDRSVEYQRLALEQSFGEKLLASALTSLEQARADAERKQIYLERVAEPNEPDVAMEPKREGHHHHHH,soluble
